In patent US9359634B2, “Fast reaction kinetics of enzymes having low activity in dry chemistry layers” (Roche Diabetes Care, Inc., priority 2009, dated 2016):
Residue numbers refer to the chain shown, from its start. Where two headings read alike, the source gives them in different places.

B1: WT-GlucDH: wild type (native) glucose dehydrogenase from Bacillus subtilis (protein, listed as Bacillus subtilis)
chain: MYPDLKGKVVAITGAASGLGKAMAIRFGKEQAKVVINYYSNKQDPNEVKEEVIKAGGEAVVVQGDVTKEEDVKNIVQTAIKEFGTLDIMINNAGLENPVPSHEMPLKDWDKVIGTNLTGAFLGSREAIKYFVENDIKGNVINMSSVHEVIPWPLFVHYAASKGGIKLMTETLALEYAPKGIRVNNIGPGAINTPINAEKFADPKQKADVESMIPMGYIGEPEEIAAVAVWLASKESSYVTGITLFADGGMTKYPSFQAGRG
B2: GlucDH_E170K (protein, UniProt P12310 1-261, looked up, variant E170K)
Glucose 1-dehydrogenase: B1 chain with E170K, V229A, S236A, K252Q
B3: GlucDH_E170K_K252L (protein)
chain: B1 chain with E170K, K252L
modifications: Mutant of glucose dehydrogenase from Bacillus subtilis

Columns and labels:
Format in all cases: biochemical
[1] = test system: glucose dehydrogenase from Bacillus subtilis; test: Enzyme activity before and after temperature stress (stress test) of clones; details: stress test: 30 min at 50° C.; tested in Escherichia coli XL1blue MRF′
Description: The PCR product obtained was transformed into Escherichia coli XL1blue MRF′. The cells were plated out, clones containing plasmid were cultured overnight and the enzyme activity was determined before and after temperature stress (stress test: 30 min at 50° C.).

[2] = biological target: T1, glucose dehydrogenase from Bacillus subtilis (Bacillus subtilis, UniProt P12310, A229V/A236S/Q252K); details: enzyme used in the test strips; coenzyme NAD
[3] = test system: glucose dehydrogenase from Bacillus subtilis; details: for activity, U/mg enzyme / activity, U/mg lyophilisate: cuvette, 25° C., 340 nm; for % U/mg lyophilisate relative to NAD: coenzyme carbaNAD relative to NAD; for activity with carbaNAD compared with activity with NAD: standardized conditions in a cuvette
[4] = biological target: T1, glucose dehydrogenase from Bacillus subtilis; details: test strips, coenzyme NAD, blood with adjusted glucose values; 1556.2 to 25.10 kU/100 g mass
[5] = biological target: T2, glucose dehydrogenase from Bacillus subtilis (Bacillus subtilis, UniProt P12310, A229V/A236S/E170K/Q252L); details: enzyme used in the test strips; coenzyme carbaNAD
[6] = biological target: T2, glucose dehydrogenase from Bacillus subtilis; details: test strips, coenzyme carbaNAD, 4.60 kU/100 g mass; versus all wild type/NAD formulations of table 3

T2 sequence (P12310 whole entry E170K/A229V/A236S/Q252L): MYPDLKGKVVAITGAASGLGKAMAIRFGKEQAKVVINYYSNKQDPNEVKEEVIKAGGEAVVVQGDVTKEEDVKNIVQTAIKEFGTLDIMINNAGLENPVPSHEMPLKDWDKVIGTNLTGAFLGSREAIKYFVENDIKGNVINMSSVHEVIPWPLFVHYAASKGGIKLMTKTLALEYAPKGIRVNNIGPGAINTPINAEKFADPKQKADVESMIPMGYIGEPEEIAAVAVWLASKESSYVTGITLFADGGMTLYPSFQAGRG

| Molecule | residual activity after stress (%) [1] [%] | lyophilisate activity (U/mg) [2] [U/mg] | Vmax (U/mg lyophilsate) [3] | Km ([3]; coenzyme NAD) [µM] | activity, U/mg enzyme ([3]; coenzyme NAD) [U/mg enzyme] | activity, U/mg lyophilisate ([3]; coenzyme NAD) [U/mg lyophilisate] | Km ([3]; coenzyme carbaNAD) [µM] | Vmax (U/mg lyophilisate) ([3]; coenzyme carbaNAD) | % U/mg lyophilisate relative to NAD [3] [%] | activity, U/mg enzyme ([3]; coenzyme carbaNAD) [U/mg enzyme] | activity, U/mg lyophilisate ([3]; coenzyme carbaNAD) [U/mg lyophilisate] | activity with carbaNAD compared with activity with NAD [3] | kinetics of the conversion of glucose [4] | lyophilisate activity (U/mg) [5] [U/mg] | kinetics of the conversion of glucose [6] |
| --- | --- | --- | --- | --- | --- | --- | --- | --- | --- | --- | --- | --- | --- | --- | --- |
| B1 | 23 | 251 | 122 | 80 | 484 | 203 | 300 | 3 | 1.7 | 8.2 | 3.4 | two orders of magnitude lower | worsened with a decreasing enzyme content |  |  |
| B2 | 80 |  |  |  |  |  |  |  |  |  |  |  |  |  |  |
| B3 | 130 |  | 144 | 70 | 270 | 167 | 1400 | 13 | 1.4 | 3.7 | 2.3 | about two orders of magnitude lower |  | 2.3 | better kinetics |
